Laboratory results from paper PMC10314698.

Molecular target: soluble BCMA (B-cell maturation antigen) (UniProt Q02223)
Test: SPR

Chain of soluble BCMA (B-cell maturation antigen) (Q02223 1-54): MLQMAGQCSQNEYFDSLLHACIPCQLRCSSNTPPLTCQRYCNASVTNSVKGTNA

Kd: 2.89 nM | koff: 0.0162 s⁻¹
Substance: LCAR-B38M (Nanjing_GSI5022_Dual_VHH)
